Blank lines part the entries; values can stand above or below the binder they belong to.
Experiments:
[1] = target: T1, SNF full-length (NMR, SPR) (Drosophila melanogaster, UniProt P43332 1-216); assay: SPR; n = 1.06; SPR 25 C: 10 mM HEPES pH 7.4, 150 mM NaCl, 3 mM EDTA, 0.05% P-20 (U1hpII); 50 mM PBS pH 7.0, 1 mM EDTA, 0.05% P-20 (poly(U)). EMSA: 4% native gel, protein ~1 uM, buffer by reference; details: protein: recombinant; tags: pET-21d(+) vector; label: biotin
T1 sequence: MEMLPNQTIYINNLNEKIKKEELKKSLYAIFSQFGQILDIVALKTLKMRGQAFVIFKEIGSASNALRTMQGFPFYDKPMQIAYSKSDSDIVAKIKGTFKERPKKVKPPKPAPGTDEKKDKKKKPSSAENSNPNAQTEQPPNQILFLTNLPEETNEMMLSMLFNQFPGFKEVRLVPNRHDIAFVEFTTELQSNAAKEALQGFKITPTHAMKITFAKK

[2] = target: T2, SNF RRM1 (Drosophila melanogaster, UniProt P43332 1-104); assay: SPR; n = 1.20; SPR 25 C: 10 mM HEPES pH 7.4, 150 mM NaCl, 3 mM EDTA, 0.05% P-20 (U1hpII); 50 mM PBS pH 7.0, 1 mM EDTA, 0.05% P-20 (poly(U)). EMSA: 4% native gel, protein ~1 uM, buffer by reference; details: protein: recombinant; tags: pET-21d(+) vector; label: biotin
T2 sequence: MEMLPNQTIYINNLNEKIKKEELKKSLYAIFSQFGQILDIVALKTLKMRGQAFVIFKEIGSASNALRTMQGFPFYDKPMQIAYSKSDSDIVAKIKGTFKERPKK

[3] = target: T2, SNF RRM1; assay: SPR; SPR 25 C: 10 mM HEPES pH 7.4, 150 mM NaCl, 3 mM EDTA, 0.05% P-20 (U1hpII); 50 mM PBS pH 7.0, 1 mM EDTA, 0.05% P-20 (poly(U)). EMSA: 4% native gel, protein ~1 uM, buffer by reference; details: protein: recombinant; tags: pET-21d(+) vector; label: biotin; hairpin
[4] = target: T1, SNF full-length (NMR, SPR); assay: NMR titration; protein:RNA 1:15; both RRMs perturbed; SPR 25 C: 10 mM HEPES pH 7.4, 150 mM NaCl, 3 mM EDTA, 0.05% P-20 (U1hpII); 50 mM PBS pH 7.0, 1 mM EDTA, 0.05% P-20 (poly(U)). EMSA: 4% native gel, protein ~1 uM, buffer by reference; details: protein: recombinant; tags: pET-21d(+) vector
[5] = target: T3, SNF RRM1 (residues 1-104) (Drosophila melanogaster (Fruit fly), UniProt P43332); assay: NMR 1H-15N HSQC comparison of full-length SNF with isolated RRMs, plus 15N relaxation; inferred in cis from full-length SNF versus isolated domains; separate RRM1 and RRM2 were not reported as mixed in trans
T3 chain: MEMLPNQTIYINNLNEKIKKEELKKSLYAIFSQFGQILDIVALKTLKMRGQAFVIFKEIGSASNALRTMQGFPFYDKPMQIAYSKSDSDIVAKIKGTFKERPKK

Binder: CCCCUCCCCUUUUUUUUUAUUUUUUUU (ssRNA, 5' biotin) [2U-run poly(U) RNA (SPR)]
Kd [1]: ~300 nM
Kd [2]: ~6000 nM

Binder: GGCUUGGCCAUUGCACCUCGGCUGAGUU (structured_RNA, 5' biotin) [U1hpII (SPR)]
Kd [3]: ~4.4 nM

Binder: UUUUUUUUAUUUUUUUUU (ssRNA) [2U-run (NMR)]
binding result [4]: binds

binding result [5]: no binding
B1: SNF RRM2 (residues 134-216) (protein)
chain: AQTEQPPNQILFLTNLPEETNEMMLSMLFNQFPGFKEVRLVPNRHDIAFVEFTTELQSNAAKEALQGFKITPTHAMKITFAKK
